According to patent US20240409645A1 (DUALYX, published 2024):

T1: human IL-2Rβ (human, UniProt P14784 27-240, limits assumed)
T1 construct: Recombinant protein, coated (ELISA) or immobilised on CM5 (SPR); also called hu IL-2R; interleukin 2 receptor β-chain
T1 sequence: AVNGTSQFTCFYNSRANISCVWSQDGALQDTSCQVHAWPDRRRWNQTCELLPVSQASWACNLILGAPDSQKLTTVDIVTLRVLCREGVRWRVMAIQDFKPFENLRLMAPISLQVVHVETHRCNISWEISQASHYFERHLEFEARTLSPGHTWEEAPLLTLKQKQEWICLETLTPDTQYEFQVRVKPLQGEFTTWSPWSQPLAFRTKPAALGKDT


What was measured:
human IL-2Rβ [1] = target: T1, human IL-2Rβ; assay: P.E. binding ELISA on coated protein
Protocol: In a binding ELISA, human or mouse IL-2Rα, IL-2Rβ and IL-2Rγ proteins were coated directly on maxisorp microtiter plates overnight at 4° C. Free binding sites were blocked using 4% Marvel in PBS for 1 hour. Next, 1:5 dilution of P.E. in 1% Marvel/PBS were added to wells and incubated for 1 hour. […] Binding specificity was determined based on O.D. at 450 nm values compared to negative controls.

human IL-2Rβ [2] = target: T1, human IL-2Rβ; assay: SPR (Biacore), P.E. off-rate ranking

Binder	P.E. binding ELISA OD (human IL-2Rβ [1])	koff (human IL-2Rβ [2])
FJ1427_P035MP03G03 (VHH, soluble VHH in periplasmic extract; also called clone nr) VHH: QVQLVESGGGLVQPGGSLGLSCAASGFTFDNYAMSWVRQAPGKGLEWVSSITGAGRGTHYADSVKGRFTISRDNAKNTLYLQMNSLKPEDTAVYYCAKYSSSTYYPPTPARGTDYRGPGTQVTVSS	0.137 OD450 nm	0.00114 s⁻¹
FJ1427_P035MP03E03 (VHH, soluble VHH in periplasmic extract; also called clone nr) VHH: QVQLVESGGGLVQPGGSLRLSCAVSGGTLHDYGIGWIRQAPGKQREGVSCMSRSDDKTYYADYVKGRFTISKDNAKNTVYLQMISLKPEDTAVYYCAAVDAYGCSLVQPTTYDYWGQGTQVTVSS	0.281 OD450 nm	0.00136 s⁻¹
FJ1427_P035MP03F03 (VHH, soluble VHH in periplasmic extract; also called clone nr) VHH: QVQLVESGGTLVQTGGSLRLSCVVSGSHFISDVMGWYRQVPGKQRELVADMADGGSAKYGDSVKGRFTIVRDSVKNTVYLQMSSLNPEDTGVYYCKAGLWIKGRHSDYWGQGTQVTVTS	0.107 OD450 nm	0.000361 s⁻¹
FJ1427_P035MP03E02 (VHH, soluble VHH in periplasmic extract; also called clone nr) VHH: QVQLVESGGGLVQVGGSLSVSCAASGRSFDSITMAYFRQAPGNEREFIAGINFSGSRTAYGDSVKGRFTISRDNAKNTVFLQMNSLNPEDTAVYYCAASPRGFYGPGHALYDYWGQGTQVTVSS	0.488 OD450 nm	0.00124 s⁻¹
FJ1427 P035MP03B04 (VHH, soluble VHH in periplasmic extract; also called clone nr) VHH: QVQLVESGGGLVQTGGSLRLSCAASGSQFINDVMGWYRQVPGKQRELVADMDDTGSTKYADSVKGRFTILRDSVKNTAYLQMSNLKPEDTGVYYCKAGLWIKGRHSDYWGQGTQVTVSS	0.186 OD450 nm	0.00043 s⁻¹
FJ1427_P035MP03F04 (VHH, soluble VHH in periplasmic extract; also called clone nr) VHH: EVQLVESGGGLVQTGGSLRLSCAASGSQFINDVMGWYRQVPGKQRELVADMDDTGSTKYADSVKGRFTILRDSVKNTAYLQMSNLKPEDTGVYYCKAGLWIKGRHSDYWGQGTQVTVSS	0.153 OD450 nm	0.000402 s⁻¹
FJ1427_P035MP03F06 (VHH, soluble VHH in periplasmic extract; also called clone nr) VHH: QVQLQESGGGLVQTGGSLRLSCAASGSQFINDVMGWYRQVPGKQRELVADMDDTGSTKYADSVKGRFTILRDSVKNTAYLQMSNLKPEDTGVYYCKAGLWIKGRHSDYWGQGTQVTVSS	0.434 OD450 nm	0.000286 s⁻¹
FJ1427_P035MP06B01 (VHH, soluble VHH in periplasmic extract; also called clone nr) VHH: QVQLVESGGGLVQAGGSLRLSCAASGDVFVRYTMAWFRQAPGKEREFVASVTDSGRTTDYVHSVKGRFTVSRDNAKNTVYLQMNNLKPEDTAVYYCAANTDYFQIRSLDANTWGQGTQVTVSS	0.521 OD450 nm	0.0021 s⁻¹
FJ1427 P035MP03B11 (VHH, soluble VHH in periplasmic extract; also called clone nr) VHH: EVQLVESGGGLVQAGGSLRLACALSGDVFVRYTMAWFRQAPGKEREFVASVTDSGRTTDYVASVQGRFTVSRDNNKNTVYLQMNSLKPEDTAVYYCAANTDYFQIRSLDRNTWGQGTQVTVSS	0.987 OD450 nm	0.000622 s⁻¹
FJ1427 P035MP03C08 (VHH, soluble VHH in periplasmic extract; also called clone nr) VHH: EVQLVESGGGLVQAGGSLRLACALSGDVFVRYTMAWFRQAPGKEREFVASVTDSGRTTDYVASVQGRFTVSRDNNKNTVYLQMNSLKPEDTAVYYCAANTDYFQIRSLDRNTWGQGTQVTVSS	0.972 OD450 nm	0.000757 s⁻¹
FJ1427 P035MP03E07 (VHH, soluble VHH in periplasmic extract; also called clone nr) VHH: QVQLVESGGGLVQAGGSLRLSCAVSGDVFVRYTMAWFRQAPGKEREFVATVTDSGRTTEYVDSVKGRFTVSRDNAKNTVYLQMNNLKPEDTAVYYCAANTDYFRIRSLDANTWGQGTQVTVSS	0.211 OD450 nm	0.00168 s⁻¹
FJ1427 P035MP03C06 (VHH, soluble VHH in periplasmic extract; also called clone nr) VHH: QVQLVESGGGLVQAGGSLRLACALSGDVFVRYTMAWFRQAPGKEREFVASVTDSGRTTDYVASVQGRFTVSRDNNKNTVYLQMNSLKPEDTAVYYCAANTDYFQIRSLDRNTWGQGTQVTVSS	1.21 OD450 nm	0.000658 s⁻¹
FJ1427_P035MP03B09 (VHH, soluble VHH in periplasmic extract; also called clone nr) VHH: QVQLVESGGGLVQAGGSLRLSCVVSGDVFVRYTMAWFRQAPGKEREFVTSITDSGRTTEYVDSVKGRFTVSRDNAKNTVYLQMNNLKPEDTAVYYCAANTDYFRIRSLDANTWGQGTQVTVSS	0.467 OD450 nm	0.00202 s⁻¹
FJ1427 P035MP03B10 (VHH, soluble VHH in periplasmic extract; also called clone nr) VHH: QVQLVESGGGLVQAGGSLRLSCVVSGDVFVRYTMAWFRQAPGKEREFVAVVTDSGRTTEYVDSVKGRFTVSRDNAKNTVYLQMNNLKPEDTAVYYCAANTDYFQIRSVDNNAWGQGTQVTVSS	0.286 OD450 nm	0.000707 s⁻¹
FJ1427 P035MP06D01 (VHH, soluble VHH in periplasmic extract; also called clone nr) VHH: QVQLVESGGRLVQAGGSLRLSCAASGDVFVRYTMAWFRQAPGKEREFVASVTDSGRTTEYVDSVKGRFTVSRDNAKNTAYLQMNNLKPEDTAVYYCAANTDYFQIRSLNLNTWGQGTQVTVSS	1.1 OD450 nm	0.00031 s⁻¹
FJ1427 P035MP03B08 (VHH, soluble VHH in periplasmic extract; also called clone nr; 250) VHH: QVQLVESGGGLVQAGGSLRLACALSGDVFVRYTMAWFRQAPGKEREFVASVTDSGRTTDYVASVQGRFTVSRDNNKNTVYLQMNSLKPEDTAVYYCAANTDYFQIRSLDRNTWGQGTQVTVSS	1.12 OD450 nm	0.00064 s⁻¹
FJ1427 P035MP03B12 (VHH, soluble VHH in periplasmic extract; also called clone nr) VHH: EVQLVESGGGLVQAGGSLRLSCAASGDVFVRYTMAWFRQAPGKEREFVAAVTDSGRTADYVDSVKGRFTVSRDNAKNTVYLQMNNLKPEDTAVYYCAANTDYFQIRSLDRNTWGQGTQVTVSS	0.202 OD450 nm	0.00125 s⁻¹
FJ1427 P035MP03D07 (VHH, soluble VHH in periplasmic extract; also called clone nr) VHH: EVQLVESGGGLVQAGGSLRLSCAASGDVFVRYTMAWFRQAPGKEREFVASVTDSGRTTDYGDSVKGRFTVSRDNAKNTVYLQMNNLKPEDTAVYYCAANTDYFQIRSLDANTWGQGTQVTVSS	0.209 OD450 nm	0.00263 s⁻¹
FJ1427_P035MP03B05 (VHH, soluble VHH in periplasmic extract; also called clone nr) VHH: EVQLVESGGGLVQAGGSLRLACALSGDVFVRYTMAWFRQAPGKEREFVASVTDSGRTTDYVASVQGRFTVSRDNNKNTVYLQMNSLKPEDTAVYYCAANTDYFQIRSLDRNTWGQGTQVTVSS	0.401 OD450 nm	0.000898 s⁻¹
FJ1427 P035MP03C11 (VHH, soluble VHH in periplasmic extract; also called clone nr) VHH: QVQLVESGGGLVQAGGSLRLACALSGDVFVRYTMAWFRQAPGKEREFVASVTDSGRTTDYVASVQGRFTVSRDNNKNTVYLQMNSLKPEDTAVYYCAANTDYFQIRSLDRNTWGQGTQVTVSS	1.31 OD450 nm	0.000514 s⁻¹
FJ1427_P035MP03A10 (VHH, soluble VHH in periplasmic extract; also called clone nr) VHH: QVQLVESGGGLVQAGGSLRLACALSGDVFVRYTMAWFRQAPGKEREFVASVTDSGRTTDYVASVQGRFTVSRDNNKNTVYLQMNSLKPEDTAVYYCAANTDYFQIRSLDRNTWGQGTQVTVSS	0.983 OD450 nm	0.000636 s⁻¹
FJ1427 P035MP03D09 (VHH, soluble VHH in periplasmic extract; also called clone nr; 260) VHH: QVQLVESGGGLVQAGGSLRLSCAVSGDVFVRYTMAWFRQAPGKEREFVASVTDSGRTTDYVHSVKGRFTVSRDNAKNTVYLQMNNLKPEDTAVYYCAANTDYFQIKSLDANTWGQGTQVTVSS	0.313 OD450 nm	0.00161 s⁻¹
FJ1427 P035MP06C02 (VHH, soluble VHH in periplasmic extract; also called clone nr) VHH: QVQLVESGGGLVQAGGSLRLSCVVSGDVFVRYTMAWFRQAPGKEREFVAVVTDSGRTTEYVDSVKGRFTVSRDNAKNTVYLQMNNLKPEDTAVYYCAANTDYFQIRSVDNNAWGQGTQVTVSS	0.799 OD450 nm	0.000455 s⁻¹
FJ1427_P035MP03G02 (VHH, soluble VHH in periplasmic extract; also called clone nr) VHH: EVQLVESGGGLVQPGGSLRLSCAISGGTLDSYGIGWVRQAPGKQREGVSCMSRSDDRTFYADSVKGRFTISKDNAKSTVYLQMTNLKPDDTAVYYCAAVDAYGCSLVQPTTYDFWGLGTQVTVSS	0.684 OD450 nm	0.000754 s⁻¹
FJ1427 P035MP03D02 (VHH, soluble VHH in periplasmic extract; also called clone nr) VHH: QVQLQESGGGLVQTGGSLRLSCAVSGSRFISDVMGWYRQVPGKQRELVADMADGGSAKYADSVKGRFSILRDSVKNTVYLQMSSLKPEDTGIYYCKAGLWLAGRHSDYWGQGTQVTVSS	0.116 OD450 nm	0.000796 s⁻¹
FJ1427_P035MP03A04 (VHH, soluble VHH in periplasmic extract; also called clone nr) VHH: EVQLVESGGGSVQTGGSLRLSCVVSGSHFISDVMGWYRQVPGKQRELVADMADGGSVKYGDSVKGRFTILRDSVKNTVTLQMSSLNPEDTGVYYCKAGLWITGRHFDYWGQGTQVTVTS	0.305 OD450 nm	0.000373 s⁻¹
FJ1427_P035MP03E04 (VHH, soluble VHH in periplasmic extract; also called clone nr) VHH: QVQLVESGGGLVQTGGSLRLSCAVSGSHFISDVMGWYRQVPEKQRELVADMADGNSAKYADSVKGRFSILRDSVKNTVYLQMSSLKPEDTGIYYCKAGLWIAGRHSDYWGQGTQVTVSS	0.22 OD450 nm	0.000253 s⁻¹
FJ1427_P035MP03B03 (VHH, soluble VHH in periplasmic extract; also called clone nr; 210) VHH: QLQLVESGGGLVQTGGSLRLSCAVSGSRFISDVMGWYRQVPGKQRELVADMADGGSAKYADSVKGRFSILRDSVKNTVYLQMSSLKPEDTGIYYCKAGLWIAGRHSDYWGQGTQVTVSS	0.31 OD450 nm	0.000499 s⁻¹
